Measured values reported in patent publication US6008320A, “Elastase inhibitor and process for preparing the same” (Korea Advanced Institute of Science and Technology, priority 1995, dated 1999).
“Also recorded” adds a separate entry of the source.

Key:
[1] = target: chymotrypsin (Bos taurus, UniProt P00766); assay: Specificity of inhibiting activity: chymotrypsin; assay type: biochemical
Method: (§1) The specific activities of Guamerin on the other types of proteases beside elastase, were studied; and, it was determined that: while it has no effect on papain, pepsin, thrombin, and factor Xa, Guamerin had about 15% of inhibiting-activity against trypsin, chymotrypsin, and subtilisin. […] In FIG. 4, HL-elastase and PP-elastase represent the ones isolated from human leukocyte and porcine pancreas, respectively.

[2] = target: factor Xa (Homo sapiens, UniProt P00742); assay: Specificity of inhibiting activity: factor Xa; assay type: biochemical
Sequence of factor Xa (P00742 235-488 limits assumed): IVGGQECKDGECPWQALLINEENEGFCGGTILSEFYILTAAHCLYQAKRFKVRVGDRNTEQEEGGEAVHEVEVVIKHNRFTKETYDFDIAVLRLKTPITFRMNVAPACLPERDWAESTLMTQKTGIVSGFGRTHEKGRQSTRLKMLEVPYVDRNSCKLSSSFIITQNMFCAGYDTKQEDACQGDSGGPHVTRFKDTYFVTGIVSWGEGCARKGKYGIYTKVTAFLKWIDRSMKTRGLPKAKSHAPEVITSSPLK
Method: as §1

[3] = target: T1, trypsin (Bos taurus, UniProt P00760); assay: Specificity of inhibiting activity: trypsin; assay type: biochemical
T1 construct: gene PRSS1
T1 sequence (P00760 24-246): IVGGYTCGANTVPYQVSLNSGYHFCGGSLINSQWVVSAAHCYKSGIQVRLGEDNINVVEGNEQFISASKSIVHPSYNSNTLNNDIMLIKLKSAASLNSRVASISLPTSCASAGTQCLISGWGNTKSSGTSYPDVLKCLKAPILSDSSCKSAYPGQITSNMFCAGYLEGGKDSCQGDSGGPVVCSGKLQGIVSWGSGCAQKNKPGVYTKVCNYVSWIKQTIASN
Method: as §1

[4] = target: thrombin (Homo sapiens, UniProt P00734); assay: Specificity of inhibiting activity: thrombin; assay type: biochemical
Method: as §1

[5] = Heat stability of Guamerin activity; assay type: physicochemical; settings: 40° C. to 100° C. at an interval of 10° C., 15 min
Method: To investigate the effect of heat on the activity of Guamerin, it was subjected to heating condition at an interval of 10° C. ranging from 40° C. to 100° C. for 15 min(see: FIG. 6).

[6] = test system: elastase; assay: Elastase-inhibiting activity assay (decrease in ρ-nitroaniline degrading activity of elastase); assay type: biochemical; settings: 1 U = amount of inhibitor that decreases the degradation of 1 μM ρ-nitroaniline by elastase per minute; 37° C., 50 min
Method: The activity of the purified Guamerin was assayed as follows: 50 μl of elastase-containing solution(0.37 mg/ml) and 500 μl of 1 mM .rho.-nitroaniline were mixed together, and 50 μl of each of fractions obtained in the course of purification was added to the mixture, and left to react at 37° C. for 50 min. The absorbance(O.D.) at 440 nm calculated in terms of the hydrolysed .rho.-nitroaniline, was measured. O.D. values of the control and the active fractions were compared, and the activity of Guamerin was determined, based on the decrease in .rho.-nitroaniline degradating activity of elastase.
Protein was quantitatively assayed by Bradford method(see: Bradford, M. M., Anal. Biochem., 72: 248-254(1976)). In this regard, one unit(1 U) was defined as the amount of inhibitor that decreases the degradation of 1 μM .rho.-nitroaniline by elastase per minute.

[7] = target: T2, papain (Carica papaya, UniProt P00784); assay: Specificity of inhibiting activity: papain; assay type: biochemical
T2 sequence (P00784 134-345): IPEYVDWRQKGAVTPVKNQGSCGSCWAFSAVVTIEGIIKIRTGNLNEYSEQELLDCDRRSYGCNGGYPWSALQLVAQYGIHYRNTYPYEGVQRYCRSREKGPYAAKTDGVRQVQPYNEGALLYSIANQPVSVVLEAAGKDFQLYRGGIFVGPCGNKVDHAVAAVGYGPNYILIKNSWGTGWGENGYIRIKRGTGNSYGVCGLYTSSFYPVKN
Method: as §1

[8] = test system: subtilisin; assay: Specificity of inhibiting activity: subtilisin; assay type: biochemical
Method: as §1

[9] = test system: elastase; assay: Specificity of inhibiting activity: elastase; assay type: biochemical; settings: FIG. 4: HL-elastase (human leukocyte) and PP-elastase (porcine pancreas)
Method: as §1

[10] = target: T3, elastase (Homo sapiens, UniProt P08246); assay: Determination of inhibition constant and inhibition mechanism; assay type: biochemical; settings: FIG. 5
T3 sequence (P08246 30-247 limits assumed): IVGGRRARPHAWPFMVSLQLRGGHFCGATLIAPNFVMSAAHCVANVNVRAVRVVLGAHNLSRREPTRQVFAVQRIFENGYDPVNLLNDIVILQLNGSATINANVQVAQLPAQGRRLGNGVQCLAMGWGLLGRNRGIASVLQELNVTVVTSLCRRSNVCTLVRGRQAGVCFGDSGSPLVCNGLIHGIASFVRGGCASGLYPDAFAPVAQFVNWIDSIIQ

[11] = target: pepsin (Homo sapiens, UniProt P0DJD8); assay: Specificity of inhibiting activity: pepsin; assay type: biochemical
Sequence of pepsin (P0DJD8 63-388): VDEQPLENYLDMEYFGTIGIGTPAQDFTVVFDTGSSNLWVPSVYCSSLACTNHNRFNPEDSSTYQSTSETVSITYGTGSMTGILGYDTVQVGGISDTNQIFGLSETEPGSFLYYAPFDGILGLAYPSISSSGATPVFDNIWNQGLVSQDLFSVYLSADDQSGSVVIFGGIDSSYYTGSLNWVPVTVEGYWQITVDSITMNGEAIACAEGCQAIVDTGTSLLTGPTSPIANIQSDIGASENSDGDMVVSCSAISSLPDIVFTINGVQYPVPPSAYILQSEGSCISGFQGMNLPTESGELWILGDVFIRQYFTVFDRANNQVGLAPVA
Method: as §1

[12] = target: T4, elastase (Homo sapiens, UniProt P08246); settings: other elastase-inhibiting proteins in the prior art; read-out: inhibition constant; cited from earlier work
T4 sequence (P08246 30-267): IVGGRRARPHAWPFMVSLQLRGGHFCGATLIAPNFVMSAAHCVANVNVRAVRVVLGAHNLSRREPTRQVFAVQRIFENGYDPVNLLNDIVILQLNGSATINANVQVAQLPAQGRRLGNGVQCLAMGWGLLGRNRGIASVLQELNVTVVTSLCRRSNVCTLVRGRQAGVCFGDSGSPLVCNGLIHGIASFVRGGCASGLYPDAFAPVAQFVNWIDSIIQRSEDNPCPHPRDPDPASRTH

Row | Substance | inhibiting-activity against chymotrypsin [1] | effect on factor Xa [2] | inhibiting-activity against trypsin [3] | effect on thrombin [4] | change in activity after heating [5] | Specific activity [6] | effect on papain [7] | inhibiting-activity against subtilisin [8] | inhibiting activity on elastase [9] | mechanism of elastase inhibition [10] | effect on pepsin [11] | Ki [12]
1 | Guamerin: novel elastase-inhibiting protein isolated from a Korean leech, Guameri (Hirudo nipponia); 57 amino acids, 6,110 Da (VDENAEDTHGLCGEKTCSPAQVCLNNECACTAIRCMIFCPNGFKVDENGCEYPCTCA) | about 15% | no effect | about 15% | no effect | quite stable; also recorded: no change | 361 units/mg | no effect | about 15% | about 90% | competitive inhibition | no effect | 
2 | elafin: elastase-inhibiting protein in the prior art, printed as isolated from european leeches (AQEPVKGPVSTKPGSCPIILIRCAMLNPPNRCLKDTDCPGIKKCCEGSCGMACFVPQ; UniProt P19957 61-117, looked up) |  |  |  |  |  |  |  |  |  |  |  | 0.6 nM
